Source: publication PMC7815493 (Redox Biology, 2021)
Each block holds one binder with its values, some of them ahead of it.

Assays:
[1] = target: the molecule itself; assay: non-reducing SDS-PAGE and immunoblot
HMGB1:LK:CFP, P09429 = target: T1, HMGB1:LK:CFP, P09429; assay: FRET or BRET; conditions: remark: other sources report otherwise
T1 chain: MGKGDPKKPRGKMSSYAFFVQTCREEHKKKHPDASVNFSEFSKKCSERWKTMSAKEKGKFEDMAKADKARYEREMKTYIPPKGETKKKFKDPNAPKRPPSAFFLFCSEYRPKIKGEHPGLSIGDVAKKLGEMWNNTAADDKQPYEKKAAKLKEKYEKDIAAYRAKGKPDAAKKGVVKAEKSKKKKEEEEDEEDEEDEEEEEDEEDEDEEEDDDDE

[2] = target: T2, Six His-tagged HMGB1 recombinant protein, P09429; assay: MALDI-TOF MS; conditions: remark: other sources report otherwise
T2 chain: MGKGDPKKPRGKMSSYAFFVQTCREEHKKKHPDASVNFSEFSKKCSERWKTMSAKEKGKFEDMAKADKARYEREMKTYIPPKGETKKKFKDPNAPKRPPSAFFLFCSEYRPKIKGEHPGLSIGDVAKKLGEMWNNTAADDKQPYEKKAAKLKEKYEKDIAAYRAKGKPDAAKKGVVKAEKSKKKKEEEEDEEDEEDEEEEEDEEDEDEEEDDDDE

[3] = target: T2, Six His-tagged HMGB1 recombinant …; conditions: remark: other sources report otherwise

B1: HMGB1 box B (aa 88-162) (domain or fragment, UniProt P09429 88-162, looked up)
chain: KFKDPNAPKRPPSAFFLFCSEYRPKIKGEHPGLSIGDVAKKLGEMWNNTAADDKQPYEKKAAKLKEKYEKDIAAY
binding result [1]: binds

FRET efficiency (HMGB1:LK:CFP, P09429): 17.1%
B2: YFP:LK:HMGB1, P09429 1-215 (natural protein)
chain: MGKGDPKKPRGKMSSYAFFVQTCREEHKKKHPDASVNFSEFSKKCSERWKTMSAKEKGKFEDMAKADKARYEREMKTYIPPKGETKKKFKDPNAPKRPPSAFFLFCSEYRPKIKGEHPGLSIGDVAKKLGEMWNNTAADDKQPYEKKAAKLKEKYEKDIAAYRAKGKPDAAKKGVVKAEKSKKKKEEEEDEEDEEDEEEEEDEEDEDEEEDDDDE

stoichiometry N [2]: 2
percent of molecules that are dimers [3]: 70%
B3: Six His-tagged HMGB1 recombinant protein, P09429 1-215 (natural protein)
chain: MGKGDPKKPRGKMSSYAFFVQTCREEHKKKHPDASVNFSEFSKKCSERWKTMSAKEKGKFEDMAKADKARYEREMKTYIPPKGETKKKFKDPNAPKRPPSAFFLFCSEYRPKIKGEHPGLSIGDVAKKLGEMWNNTAADDKQPYEKKAAKLKEKYEKDIAAYRAKGKPDAAKKGVVKAEKSKKKKEEEEDEEDEEDEEEEEDEEDEDEEEDDDDE
